Biological target: MBP2-ISEF-N1G1N2-(…)-NVDE1-184-…-FKBP2-GSRS-6His (bacteriophage M13; yeast; human) (UniProt P69168)
Experiment: cell-based or functional assay

Sequence of MBP2-ISEF-N1G1N2-(…)-NVDE1-184-…-FKBP2-GSRS-6His (bacteriophage M13; yeast; human) (P69168 19-265, tags or fused parts left off): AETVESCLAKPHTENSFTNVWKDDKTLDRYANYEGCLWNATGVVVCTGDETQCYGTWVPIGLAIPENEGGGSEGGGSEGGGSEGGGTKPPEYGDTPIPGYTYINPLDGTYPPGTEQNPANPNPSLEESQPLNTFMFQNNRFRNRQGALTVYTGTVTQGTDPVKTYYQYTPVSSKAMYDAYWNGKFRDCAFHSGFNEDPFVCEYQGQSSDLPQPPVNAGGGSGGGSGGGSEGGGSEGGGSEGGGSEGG

phage displaying the fusion protein FRB-TS-CVDE390-454-GSGGGS-CTg3p (from UniProt P42345 2021-2113; P17255 390-454)
phages recovering infecting ability counted as colony forming units, with against without rapamycin (10 µM): 100 times

Reference: patent US20100273669A1
